# B1: EV A114 (nucleic acid, listed as Enterovirus sp.)
# chain: TGTGCGCCTGTTTTGAAACCCCCTCCCCCAACTCGAAACGTAGAAGTAATGTACACTACTGATCAGTAGCAGGCGTGGCGCACCAGCCATGTCTCGATCAAGCACTTCTGTTTCCCCGGACTGAGTATCAATAGACTGCTCACGCGGTTGAAGGTGAAAACGTCCGTTACCCGGCTAACTACTTCGAGAAACCTAGTAGCACCATAGAAACTGCAGAGTGTTTCGCTCAGCACTTCCCCCGTGTAGATCAGGTCGATGAGTCACTGCAATCCCCACGGGTGACCGTGGCAGTGGCTGCGTTGGCGGCCTGCCTATGGGGCAACCCATAGGACGCTCTAAGGTGGACATGGTGTGAAGAGTCTATTGAGCTAGTTAGTAGTCCTCCGGCCCCTGAATGCGGCTAATCCTAACTGTGGAGCGCATACTCCCAAACCAGGGAGCAGTGCGTCGTAACGGGCAACTCCGCAGCGGAACCGACTACTTTGGGTGTCCGTGTTTCCTTTTATTCCTATACTGGCTGCTTATGGTGACAATTGAGAGATTGTTACCATATAGCTATTGGATTGGCCATCCAGTGTGTAATAGAGCAATCATTTACCAATTTGTTGGATTTACTCCATTAACCCACACGTCTCTCAACACACTACATTTCATCTTACTACTGAACACTAGAAA
# modifications: lipid formulation
# B2: Hunnivirus A1 (nucleic acid, listed as Hunnivirus sp.)
# DNA: TAACGTTTGGCAAGAACCCTCACCTGTCAATTGGGACCACCACTTTCAGTGACCCCATGCGAAGTAGTGAGAGAGAATAAGCTTTCTTACCCTTCATTTGTGAACCCTTCAGTCGAAGCCGCTTGGAATAAGATAGGAGGAAAAGTTCATTCTAAATGGAGTGAAACATGTACTTCAGAATTTCTAGCACGCGCTGGGCTTTCTTGCGTGTGACGGCACTGTCTTGCCGGAGCTCTCCACACTGACACCCCACGCTTGTGGACCTTGGTGGCAGATGACAACACTGCAGCTGGAATTGAGTGTCTGGTACACTCTGTGTAACAGTGAAAACAATGTGATCACTTCGGTGAGCTAGTAGCCTGTGGACCAACAACTGGTAACAGTTGCCTCAGGGGCCAAAAGCCACGGTGTTTACAGCACCCTACTGGTTTGATTGGAGCAATCCAAGATGTCACAGAGTTAGTAATTGCCAAGCAGTCCGTACTGGTATCTTGACATACCGTGCAGTTTTGGATAGTGAAGGATGCCCTGACGGTACCCATAGGTAACAAGTGACACTATGGATCTAAGCAGGGGCTCACTCTACGCTGCTTTACAGCTGGCTGTGAGTTAAAAAACGTCTAGCTATCCACAACCTAGGGGACTAGGTTTTCCTTTTATTTAGATTACAATTAT
# B3: Hunnivirus A2 (nucleic acid, listed as Hunnivirus sp.)
# DNA: ACAGTTTTTGACAAGGACCCTCACCTGTCAATCGGGACCACCACTTTCAGTGACCCCGTGCGAAGTGTTGAGAGAAAGTGAGCTTTCTTACCCTTCATTTGTGAACCCTTCAGTCGAAGCCGCTTGGAATAAGATGGAAGGAAATGTTCATTCTAAATGGAGTGAAACATATACTTAATTTCCAGTGTTTAGTGGTCTTTCCACTAGACAACGGCACTGTCTTGCCGGAACTCTACACACCAACATTCCACGCTTGTGGGACTCAAATGTTGGATGACACAGTTGTAGCTGGAACTGAGTGTTTAGTGCACTCTGTGTAACAGTGAAAACAATGTGATCACTTCGGTGGGCTAGTAGCCTGTGGACTAACAACTGGTAACAGTTGCCTCAGGGGCCAAAAGCCACGGTGTTAACAGCACCCTACTAGTTTGATTGGAGCAATCCATGATGTTACAGAGTTAGTAACTGCCAAACAGATTGTACTGGTATCTTGGCATACCGTGCAACTTAGGATAGTGAAGGATGCCCTGGCGGTACCCATAGGTAACAAGTGACACTATGGATCTAAACAGGGGCTCACTCTACGTTGCTTTACAACTAGCTGTGAGTTAAAAAACGTCTAACTATCCACAACCTAGGGGACTAGGTTTTCCTTTTTATTTTTATACACAACTA
# B4: Ia Io (nucleic acid)
# DNA: GGTGTCCGGGTGTGTGGGATAGACCCAGATGTGCAGTGGATGCGAGCATTTGAGTCAGAGTAGGAGCAAGCCCAGGGGCAAAGGGACCACATTGTGTATCCCGAATGAAGGATCGAGATTTCTCTCCTCATTACCCGGTGTCTTGTCACTGTTGGGGGGGCCCAACAGTCTTAGTCCTATACTGCCTGATAGGGTCGCGGCTGGCCGGACTCAAGTGCTATAGTCAGTTGATTTTCACTC
# modifications: source: /note="Description of Unknown: Ia Io sequence"
# B5: Taura Syndrome Virus: "an IRES is an IRES sequence of Taura syndrome virus" (nucleic acid)
# DNA: CTTTAAAAGTCGTGCGTGGCTTCACCACGCACGATCAGTACTATCAGTTAACCACTCTTGAATATGCTCAATGACCCTATTCAACACTGGTGTCTCTTAGTACATTATTTTAGCACTTAACGTGCATGAGTTTTGCCCATTTCTTTCAAAAAAATGAGTATTCGAGGAGACGTCCCGCTCCCCGTCTTATTTCAACCGTAGACTCGACATCTATTGGTGGACATTTAATTCCAGTCGCCGTAAGTTGCTTCTGCCCCGCGCTATATTTTCTTATACTTATGGTTCTATAGGTCTGGTTTAAAACGTAAATAGACGGCCCACAAACTATAGAACGCGTACCCGGAACGCCAATCCCGGATAAGTCCCTGGATATATAGATGCACCGCAATATAAGCCTGCAGACTGTCTCATATACT
# modifications: Taura Syndrome Virus
# B6: GFTV (nucleic acid)
# chain: ATGGGGAAGGGTATGACGTGCCCCTTCCTTCTTCGGAGAACTCGCTCTAGTGGTCTTTCCACTTCTGGAAAAGAGTGAGTGCACGTGATCAGGACCGTCGAAGACGACAAATACCTGGTGCTCTATCTCATAGACGTTTCACAGCTGTAGCGACCCCTCAGTAGCAGCGGAAGCCCCCTCCTGGTGACAGGAGCCTCTGCGGCCAAAAGCCACGTGGATAAGATCCACTGCTGAGGGCGGTGCGACCCTAGCACCCTGTGATGCATACTAGTTGTAGCGTGCCGGACTATTGGTCTGTCATAAGACACCTGATAGAGAGACCAAGAATGTCCTGGAGGTACCCCGCGTGCGGGATCTGACCAGGAGACCATTGCCCAATGCTTTACAACGGGTCTATGGTTTAAAAACTGTCGCAGTCTCTCCAAACCAAGTGGTCTTGGTTTTCAATTACTTTGAATATTTCACT
# modifications: lipid formulation; source: /note="Description of Unknown: GFTV sequence"
# B7: VHEV (nucleic acid)
# DNA: AATTCCTTCTTCCTTTCTCCTTGGACCTCGGTCCCCCGGTCTAAGCCGCTCGGAATATGACAGGGTTATTTTCACCTCTTCTCTCTTCTACTTCATAGTGTTCTATACTATGAAAGGGTATGTGTCGCCCCTTCCTTCTTGGAGAACGTGCGTGGCGGTCTTTCCGTCTCTCGAAAAACGTGCGTGCGACATGCAGAGTAACGCAAAGAAAGCAGTTCTTGGTCTAGCTCTGGTGCCCACAAGAAAACAGCTGTAGCGACCACACAAAGGCAGCGGAAACCCCCTCCTGGTAACAGGAGCCTCTGCGGCCAAAAGCCACGTGGATAAGATCCACCTTTGTGTGCGGTGCAACCCCAGCACCCTGGTTTCTTGGTGACACCTTAGTGAACCCTCGAATGGCAATCTCAAGCGCCTCTGTAGGAAAGCCAAGAATGTCCAGGAGGTACCCCTTCCTCATGGAGGGATCTGACCTGGAGACACATCACACGTGCTATACACTTGTGCTTGTGTTTAAAAATTGTCACAGCTTTCCCAAACCAAGTGGTCTTGGTTTTCCCTTAACTTCGAAAAGTCACTATGGCCTGCAAACATGGATACCCAGACGTGTGCCCT
# modifications: source: /note="Description of Unknown: VHEV sequence"
# B8: TRV NGS910 (nucleic acid)
# DNA: ATGCGACGTGGTTGGAGATTAAACCGACTCCGACGAAAGTGCTATCATGCCTCCCCGATTATGTGATGTTTTCTGCCCTGCTGGGCGGAGCATTCTCGGGTTGATACACCTTGAATCCTTCATCCTTGGACCTCAGGTCCCCCGGTCTAAGCCGCTTGGAATACGACAGGGTTATTTTCCAATCTTCTCCTTTCTACTTTCATGAGTCCTATTCATGAAAAGGGTCTGTGCTGCCCCTTCCTTCTTGGAGAATCTGCGCGGCGGTCTTTCCGTCTCTCGAAAAGCGCAGATGCAGCATGCTGGAACCGGTGAAGAAAACAGTTCTTTGTGGAAACTTAGAGCAGACATCGAAACAGCTGTAGTGACCTCACAGTAGCAGCGGAACCCCCTCCTGGTAACAGGAGCCTCTGCGGCCAAAAGCCCCGTGGATAAGATCCACTGCTGTGAGCGGTGCAACCCCAGCACCCTGGTTCGATGGTTGTTCTCTGTGGAACCAGAGAATGGTCTTTCTCAAGCCCTCCAGTAGAGAAGCCAAGAATGTCCTGAAGGTACCCCGCATGCGGGATCTGATCAGGAGACCAATCGTCAGTGCTTTACACTGGCGCTTTGGTTTAAAAACTGTCACAGCTTCTCCAAACCAAGTGGTCTTGGTTTTCACTTTTATCAAACTGTTTC
# modifications: lipid formulation; source: /note="Description of Unknown: TRV NGS910 sequence"
# B9: Tottorivirus (nucleic acid, listed as Tottorivirus sp.)
# DNA: CCCCTTTACGTAACTGCAACTTAAAGAGTACCCTACTGCATTGGATGTGTGGTAAACTTTTACGCACACATTTGTAGTAGTGTTAGTTATGTTCTACCTAATGAGTATGCATGCACCCGTCGAAACACGCTTGTGATAAGATAGGTGAGTCCATGTGACTAATCTCATTAAGATAAATAAGCACCCTACAACGCACGGCACGCTCGTGTCTTCCGTGCGGGGCCGGGACAACAGCGGCCTAAATCTTCTAGGTGACCACCATGCTTTTGGGACTATGGCACCACTGTGGACGTGAGTACCTGGCAGTAAGTCTGTGAAAAGATGGAAGGTGTCCCAAGCTATGGGGCGTATGCATATAGCCTGCGGAACAAACAACGGCGACGTTGTCCCCAGGGCCCAAAAGGCACGTGGATAAGATCCACCTATATGTTTACCCCATAGTGTAAGTCACTGGAAGTCCTAGTAATGGATGTCTGGAGTAAGGCTCACGGGGTAGGGCGAAGGATGCCCAGAAGGTACCCGTAGGTAACCTTAAGAGACTATGGATCTGATCTGGGGACCGGATGGCGCCATCACCATGACGTGGAGGCCGGTTTAAAAAACGTCTAAGCCCGACCAACAACCTAGGGGACTAGGTTTTCCTTTTTTATTCATGTATGACGTT
# Test system: HEK293 cells
# Assay type: cell-based, human
# Details: circular RNA encoding Gluc with the listed IRES (UTR truncated to 675 nt) transfected into HEK293 cells; supernatant after 24 hours
row,Molecule,Expression (luminescence from secreted Gluc protein)
1,B1,1.50E+08
2,B2,1.61E+06
3,B3,6.38E+06
4,B4,1.35E+06
5,B5,8.30E+05
6,B6,1.23E+06
7,B7,1.74E+08
8,B8,3.84E+07
9,B9,2.76E+07
